Test results as given in publication PMC6180428.

Molecular target: NagA-GFP-His6 fusion protein (N-acetylglucosamine-6-phosphate deacetylase from Mycobacterium smegmatis with C-terminal TEV-cleavable GFP-His6) (Mycobacterium smegmatis)
Experiment: SEC; Superdex 200 16/60, 20 mM Bis-Tris, 300 mM NaCl, 10% glycerol pH 8.0; oligomeric state from the elution profile

NagA-GFP-His6 fusion protein (N-acetylglucosamine-6-phosphate deacetylase from Mycobacterium smegmatis with C-terminal TEV-cleavable GFP-His6) (enzyme)
stoichiometry N: 2
